# According to patent US20180118803A1 (Memorial Sloan Kettering, published 2018):
# T1: GPRC5D peptide stretch 16CDAEGPWGII25 (N-term) (human)
# T1 construct: This is a stretch deduced from array peptides that contain it
# T1 peptide: CDAEGPWGII
# T2: GPRC5D peptide stretch 229PQFQRQPQW237 (ECL3) (human)
# T2 construct: This is a stretch deduced from array peptides that contain it
# T2 peptide: PQFQRQPQW
# T3: GPRC5D peptide stretch 5CIESTGDYFLLCD17 (N-term) (human)
# T3 construct: This is a stretch deduced from array peptides that contain it
# T3 peptide: CIESTGDYFLLCD
# T4: GPRC5D peptide stretch 15LCDAEGPWG23 (N-term) (human)
# T4 construct: This is a stretch deduced from array peptides that contain it
# T4 peptide: LCDAEGPWG
# T5: GPRC5D peptides containing sequence 230QFQRQPQWDDPVVC243 (ECL3) (human)
# T5 construct: This is a stretch deduced from array peptides that contain it
# T5 peptide: QFQRQPQWDDPVVC
# Legend:
# [1] = molecular target: T1, GPRC5D peptide stretch 16CDAEGPWGII25 …; test: Pepscan ELISA on peptide arrays, moderate stringency, 1 ug/ml
# Procedure: (§1) ELISA Screening—The binding of antibody to each of the synthesized peptides was tested in a PEPSCAN-based ELISA. The peptide arrays were incubated with primary antibody solution (overnight at 4° C.). After washing, the peptide arrays were incubated with a 1/1000 dilution of an appropriate antibody peroxidase conjugate (SBA) for one hour at 25° C. After washing, the peroxidase substrate 2,2′-azino-di-3-ethylbenzthiazoline sulfonate (ABTS) and 2 μl/ml of 3 percent H₂O₂ were added. After one hour, the color development was measured. The color development was quantified with a charge coupled device (CCD)—camera and an image processing system.
# [2] = molecular target: T2, GPRC5D peptide stretch 229PQFQRQPQW237 …; test: as above
# Procedure: as §1
# [3] = molecular target: T3, GPRC5D peptide stretch 5CIESTGDYFLLCD17 …; test: Pepscan ELISA on peptide arrays, high stringency, 1 ug/ml
# Procedure: as §1
# [4] = molecular target: T4, GPRC5D peptide stretch 15LCDAEGPWG23 …; test: Pepscan ELISA on peptide arrays, high stringency, 3 ug/ml
# Procedure: as §1
# [5] = molecular target: T5, GPRC5D peptides containing sequence …; test: Pepscan ELISA, set 1 (linear) compared with set 4 (loop), high stringency, 3 ug/ml
binder,measurement,setting,value
"ET150-2 mIgG1 (antibody, V domains shown, also called ET150-152) VH: QMQLVQSGAEVKKPGASVKVSCKASGYTFNRYAITWVRQAPGQGLEWMGWISAYNGNSHYAQKLQGRVTMTTDTSTGTAYMELRRLRSDDTAVYYCARMAYDSWGQGTLVTVSS VL: QSVLTQPASVSGSPGQSLTISCTGTSNDVGAYKYVSWYQQYPGKAPKLILYDVFKRPSGVSNRFSGSKSDNTASLTISGLQAEDEADYYCFSLTSSNTYVFGTGTKVTVLG",binding result,[1],binds
same,binding result,[2],binds
"ET150-5 mIgG1 (antibody, V domains shown, also called ET150-155) VH: EVQLVESGGGLVKPGGSLRLSCAASGFTFSDYYMSWIRQAPGKGLEWVSYISSSGSTIYYADSVKGRFTISRDNAKNSLYLQMNSLRAEDTAVYYCARGYGKAYDQWGQGTLVTVSS VL: QSVLTQPPSASGTPGQRVTISCSGSRSNVGGNYVFWYQQVPGATPKLLIYRSNQRPSGVPDRFAGSKSGSSASLAISGLRSEDEADYYCATWDDSLSGFVFGTGTKVTVLG",binding result,[3],binds
"ET150-8 mIgG1 (antibody, V domains shown, also called ET150-158) VH: QVQLVESGGGLVHPGGSLRLSCAASGFTFRSHSMNWVRQAPGKGLEWVSSISSDSTYTYYADSVKGRFTISRDNAKNSLYLQMNSLRAEDTAVYYCARSGGQWKYYDYWGQGTLVTVSS VL: SSELTQDPAVSVALGQTVRITCQGDSLRSYYASWYQQKPGQAPVLVIYGKNNRPSGIPDRFSGSSSGNTASLTITGAQAEDEADYYCNSRDSSGNPPVVFGGGTKLTVLG",binding result,[4],binds
same,binding result,[5],binds
